In patent US20180326085A1 (Merck KGaA, published 2018):
Residue numbers refer to the chain shown, from its start.

B1: oa 225-L (antibody, V domains shown)
VH: EVQLVQSGAEVKKPGASVKVSCKASGFSLTNYGVHWMRQAPGQGLEWIGVIWRGGNTDYNTPFTSRVTITSDKSTSTAYMELSSLRSEDTAVYYCARALTYYDYEFAYWGQGTLVTVSS
VL: DIQMTQSPSSLSASVGDRVTITCRASQSIGTNIHWYQQKPGKAPKLLIKYASESISGVPSRFSGSGYGTDFTLTISSLQPEDVATYYCQQNNNWPTTFGQGTKVEIK
notes: one-armed (monovalent) anti-EGFR SEED molecule
B2: oa225-M (antibody, V domains shown)
VH: B1 VH with R53S
VL: B1 VL with N92Y
notes: as for B1
B3: B10v5x425 (bispecific antibody, V domains shown)
VL (c-MET arm): EPVLTQPPSVSVAPGETATIPCGGDSLGSKIVHWYQQRPGQAPLLVVYDDAARPSGIPERFSGSKSGTTATLTISSVEAGDEADYFCQVYDYHSDVEVFGGGTKLTVLGQPKAA
VH (c-MET arm): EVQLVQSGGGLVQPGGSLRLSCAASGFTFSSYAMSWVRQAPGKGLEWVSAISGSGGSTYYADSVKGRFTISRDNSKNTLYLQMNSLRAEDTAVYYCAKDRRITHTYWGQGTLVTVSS
VL (EGFR arm): DIQMTQSPSSLSASVGDRVTITCSASSSVTYMYWYQQKPGKAPKLLIYDTSNLASGVPSRFSGSGSGTDYTFTISSLQPEDIATYYCQQWSSHIFTFGQGTKVEIKR
VH (EGFR arm): QVQLVQSGAEVKKPGASVKVSCKASGYTFTSHWMHWVRQAPGQGLEWIGEFNPSNGRTNYNEKFKSKATMTVDTSTNTAYMELSSLRSEDTAVYYCASRDYDYDGRYFDYWGQGTLVTVSS
notes: c-MET x EGFR SEED bispecific
B4: CS06x425 (bispecific antibody, V domains shown)
VL (c-MET arm): QLVLTQSPSVSVAPGKTARITCGGNNIRNVGVHWYQKKPGQAPILVVYDDDDRPSGVPERFSGSNSGNTATLTISRVEAGDEADYYCQVWDSATDQRVFGGGTKLTVLGQPKAG
VH (c-MET arm): QVQLQQSGAEVKKPGSSAKVSCKASGGTFSSNAISWVRQAPGQGLEWMGGIIPIFGTAIYAQKFQGRVTITADESTSTAYMELSSLRSEDTAVYYCARDQRGYYYYYYYGMDVWGQGTTVTVSS
VL (EGFR arm): B3 VL (EGFR arm)
VH (EGFR arm): B3 VH (EGFR arm)
notes: c-MET x EGFR SEED bispecific
B5: B10x425 (bispecific antibody, V domains shown)
VL (c-MET arm): QSVLTQPPSTSGTPGQRVTISCFGSSSNVGVNTVNWYRQLPGTAPKLLIYDNNLRPSGVPERFSGSKSGTSASLAITGLQAEDEGDYYCQSYDSSLSDVVFGGGTKLTVLGQPKAG
VH (c-MET arm): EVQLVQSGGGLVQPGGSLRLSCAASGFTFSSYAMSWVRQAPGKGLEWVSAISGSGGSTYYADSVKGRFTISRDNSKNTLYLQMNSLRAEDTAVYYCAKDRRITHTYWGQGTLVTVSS
VL (EGFR arm): B3 VL (EGFR arm)
VH (EGFR arm): B3 VH (EGFR arm)
notes: c-MET x EGFR SEED bispecific
B6: B10v5x225-M (bispecific c-MET x EGFR SEEDbody) (bispecific antibody, V domains shown)
VH 1: not shown
VL 1: B3 VL (c-MET arm)
VH 2: B1 VH with R53S
VL 2: B1 VL with N92Y
notes: SEEDbody format (IgG1 hinge-CH2-SEED CH3)
B7: CS06x225-L (bispecific antibody, V domains shown)
VL (c-MET arm): B4 VL (c-MET arm)
VH (c-MET arm): B4 VH (c-MET arm)
VL (EGFR arm): B1 VL
VH (EGFR arm): B1 VH
notes: c-MET x EGFR SEED bispecific
B8: B10x225-L (bispecific antibody, V domains shown)
VL (c-MET arm): B5 VL (c-MET arm)
VH (c-MET arm): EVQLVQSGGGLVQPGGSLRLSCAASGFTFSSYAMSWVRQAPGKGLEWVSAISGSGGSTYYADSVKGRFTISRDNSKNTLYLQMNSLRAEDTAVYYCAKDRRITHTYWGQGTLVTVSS
VL (EGFR arm): B1 VL
VH (EGFR arm): B1 VH
notes: c-MET x EGFR SEED bispecific; also called 225L, B10
B9: B10x225-H (bispecific antibody, V domains shown)
VL (c-MET arm): B5 VL (c-MET arm)
VH (c-MET arm): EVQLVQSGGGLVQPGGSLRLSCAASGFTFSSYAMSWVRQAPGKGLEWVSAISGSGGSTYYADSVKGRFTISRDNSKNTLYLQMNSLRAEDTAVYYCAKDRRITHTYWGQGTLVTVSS
VL (EGFR arm): B1 VL with N93E, T96N
VH (EGFR arm): B1 VH with R53S, T100D
notes: c-MET x EGFR SEED bispecific
B10: CS06x225-M (bispecific antibody, V domains shown)
VL (c-MET arm): B4 VL (c-MET arm)
VH (c-MET arm): B4 VH (c-MET arm)
VL (EGFR arm): B1 VL with N92Y
VH (EGFR arm): B1 VH with R53S
notes: c-MET x EGFR SEED bispecific
B11: B10x225-M (bispecific antibody, V domains shown)
VL (c-MET arm): B5 VL (c-MET arm)
VH (c-MET arm): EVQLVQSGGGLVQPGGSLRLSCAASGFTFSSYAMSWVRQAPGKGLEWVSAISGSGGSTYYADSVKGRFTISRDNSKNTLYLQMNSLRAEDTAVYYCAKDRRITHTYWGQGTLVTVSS
VL (EGFR arm): B1 VL with N92Y
VH (EGFR arm): B1 VH with R53S
notes: c-MET x EGFR SEED bispecific
B12: matuzumab (425) (antibody, V domains shown)
VH: B3 VH (EGFR arm)
VL: B3 VL (EGFR arm) with R107G

Molecular target: T1, EGFR (epidermal growth factor receptor) on A549 cells (human, UniProt P00533 25-1210)
T1 construct: whole, on cells; Endogenous receptor of A549 cells; phosphorylation read out in cell lysates
Assay: flow cytometry, A549 cells (c-MET+ EGFR++)

MFI at 100 nM	Binder
91	B1
138	B2

Molecular target: T2, c-MET and EGFR co-expressed on cells (human, UniProt P08581;P00533)
T2 construct: endogenous receptor on the cell surface; not a complex: two separate receptors on the same cell; used as target only for bispecific c-MET x EGFR molecules, whose cell staining cannot be split between the two arms; also called cells that carry both receptors: NCI-H441, EBC-1, A431, MKN-45, A549, HepG2 (cell line under assay)
Assay: flow cytometry, A549 cells (c-MET+ EGFR++)

MFI at 100 nM	Binder
328	B3
268	B4
270	B5
383	B6
212	B7
192	B8
454	B9
264	B10
572	B11

Molecular target: T3, c-MET on cells (human, UniProt P08581)
T3 construct: endogenous receptor on the cell surface; for A549 cells m4 is used; also called HGFR; on NCI-H441, EBC-1, A431, MKN-45, SK-MEL2 or HepG2 cells (cell line under assay)
Assay: flow cytometry, SK-MEL2 cells (c-MET+ EGFR-)

MFI at 100 nM	binding result	Binder
213	–	B3
132	–	B4
25	–	B5
17	no binding (tested: 100 nM)	B1
457	–	B6
188	–	B7
23	–	B8
19	no binding (tested: 100 nM)	B2
64	–	B9
236	–	B10
53	–	B11

Molecular target: T4, biotinylated recombinant human c-MET ECD (HGFR extracellular domain) (human, UniProt P08581 25-932, biotinylated (sites not given))
T4 construct: extracellular domain; also called human c-MET ECD-His
Assay: BLI (Octet), antibody on anti-human Fc biosensors, soluble c-MET ECD as analyte

Kd	koff	kon	Binder
0.37 nM	0.00015 s⁻¹	400000 M⁻¹ s⁻¹	B6
0.21 nM	0.00022 s⁻¹	1.1e+06 M⁻¹ s⁻¹	B10

Molecular target: T5, EGFR on cells (human, UniProt P00533)
T5 construct: endogenous receptor on the cell surface; for A549 cells m5 is used; also called on NCI-H441, EBC-1, A431, MKN-45, HepG2 or T47D cells (cell line under assay)
Assay: flow cytometry, HepG2 cells (c-MET+ EGFR+)

MFI at 100 nM	Binder
22	B1
40	B2

Molecular target: T2, c-MET and EGFR co-expressed on cells
Assay: flow cytometry, HepG2 cells (c-MET+ EGFR+)

MFI at 100 nM	Binder
348	B3
164	B4
101	B5
793	B6
254	B7
85	B8
100	B9
330	B10
84	B11

Molecular target: T5, EGFR on cells
Assay: flow cytometry, EBC-1 cells (c-MET+++ EGFR++)

MFI at 100 nM	Binder
137	B1
189	B2

Molecular target: T2, c-MET and EGFR co-expressed on cells
Assay: flow cytometry, EBC-1 cells (c-MET+++ EGFR++)

MFI at 100 nM	Binder
1960	B3
1370	B4
361	B5
2280	B6
2048	B7
434	B8
948	B9
1870	B10
671	B11

Molecular target: T5, EGFR on cells
Assay: flow cytometry, MKN-45 cells (c-MET+++ EGFR++)

MFI at 100 nM	Binder
83	B1
144	B2

Molecular target: T2, c-MET and EGFR co-expressed on cells
Assay: flow cytometry, MKN-45 cells (c-MET+++ EGFR++)

MFI at 100 nM	Binder
1280	B3
1450	B4
1260	B5
1270	B6
1530	B7
1220	B8
1320	B9
1470	B10
1790	B11

Molecular target: T6, EGFR (soluble extracellular domain) (human, UniProt P00533)
T6 construct: soluble extracellular domain; also called Human EGFR extracellular domain, R&D Systems 1095-ER
Assay: BLI (Octet), antibody on anti-human Fc biosensors, soluble EGFR ECD as analyte

Kd	koff	kon	Binder
12 nM	0.0078 s⁻¹	640000 M⁻¹ s⁻¹	B12
220 nM	0.14 s⁻¹	610000 M⁻¹ s⁻¹	B1
4.7 nM	0.017 s⁻¹	3.6e+06 M⁻¹ s⁻¹	B6
4.4 nM	0.016 s⁻¹	3.7e+06 M⁻¹ s⁻¹	B2
3.9 nM	0.018 s⁻¹	4.6e+06 M⁻¹ s⁻¹	B10

Molecular target: T5, EGFR on cells
Assay: flow cytometry, A431 cells (c-MET+ EGFR+++)

MFI at 100 nM	Binder
1260	B1
1500	B2

Molecular target: T2, c-MET and EGFR co-expressed on cells
Assay: flow cytometry, A431 cells (c-MET+ EGFR+++)

MFI at 100 nM	Binder
1430	B3
1350	B4
1120	B5
1290	B6
890	B7
947	B8
1980	B9
1170	B10
1480	B11
